Test results reported in article PMC11369174, “Proteome-scale characterisation of motif-based interactome rewiring by disease mutations” (Molecular Systems Biology, 2024).

Experiments:
GABARAPL1 ATG8 (human) = test: fluorescence polarisation; displacement: unlabelled peptide titrated onto a complex of FITC-labelled peptide (10 nM) and protein domain (1-2x KD); 50 mM sodium phosphate buffer pH 7.4 (CASK: plus 100 mM NaCl); KD calculated from IC50; technical triplets
[1] = target: importin subunit α-3 (KPNA4) ARM domain (human); test: fluorescence polarisation; displacement as a1, with a FITC-labelled probe sampling the major pocket of the ARM domain (KPNA4, KPNA7)
Sequence of importin subunit α-3 (KPNA4) ARM domain (human) (O00629 whole entry, the tested form may be a part): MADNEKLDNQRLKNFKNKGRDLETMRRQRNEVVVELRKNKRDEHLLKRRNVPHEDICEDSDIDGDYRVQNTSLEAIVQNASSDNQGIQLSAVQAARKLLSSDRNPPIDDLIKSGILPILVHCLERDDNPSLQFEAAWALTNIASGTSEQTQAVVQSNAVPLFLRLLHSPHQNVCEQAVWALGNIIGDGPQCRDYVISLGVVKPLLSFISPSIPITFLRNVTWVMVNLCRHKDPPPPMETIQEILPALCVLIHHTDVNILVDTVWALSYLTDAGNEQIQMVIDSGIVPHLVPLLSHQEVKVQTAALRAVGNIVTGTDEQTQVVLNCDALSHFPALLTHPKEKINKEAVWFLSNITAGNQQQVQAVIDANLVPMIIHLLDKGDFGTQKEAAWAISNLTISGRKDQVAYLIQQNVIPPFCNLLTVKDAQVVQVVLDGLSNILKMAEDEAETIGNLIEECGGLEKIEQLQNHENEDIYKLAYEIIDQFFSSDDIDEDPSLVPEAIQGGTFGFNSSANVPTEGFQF

[2] = target: importin subunit α-3 (KPNA4) ARM domain (human); test: fluorescence polarisation; displacement as a1, with a FITC-labelled probe sampling the minor pocket of the KPNA4 ARM domain
MAP1LC3A ATG8 (human) = test: fluorescence polarisation; displacement: unlabelled peptide titrated onto a complex of FITC-labelled peptide (10 nM) and protein domain (1-2x KD); 50 mM sodium phosphate buffer pH 7.4 (CASK: plus 100 mM NaCl); KD calculated from IC50; technical triplets
[3] = target: E3 ubiquitin-protein ligase NEDD4 (NEDD4) WW2 domain, GST-tagged (human); test: as above
Sequence of E3 ubiquitin-protein ligase NEDD4 (NEDD4) WW2 domain, GST-tagged (human) (P46934 whole entry, the tested form may be a part): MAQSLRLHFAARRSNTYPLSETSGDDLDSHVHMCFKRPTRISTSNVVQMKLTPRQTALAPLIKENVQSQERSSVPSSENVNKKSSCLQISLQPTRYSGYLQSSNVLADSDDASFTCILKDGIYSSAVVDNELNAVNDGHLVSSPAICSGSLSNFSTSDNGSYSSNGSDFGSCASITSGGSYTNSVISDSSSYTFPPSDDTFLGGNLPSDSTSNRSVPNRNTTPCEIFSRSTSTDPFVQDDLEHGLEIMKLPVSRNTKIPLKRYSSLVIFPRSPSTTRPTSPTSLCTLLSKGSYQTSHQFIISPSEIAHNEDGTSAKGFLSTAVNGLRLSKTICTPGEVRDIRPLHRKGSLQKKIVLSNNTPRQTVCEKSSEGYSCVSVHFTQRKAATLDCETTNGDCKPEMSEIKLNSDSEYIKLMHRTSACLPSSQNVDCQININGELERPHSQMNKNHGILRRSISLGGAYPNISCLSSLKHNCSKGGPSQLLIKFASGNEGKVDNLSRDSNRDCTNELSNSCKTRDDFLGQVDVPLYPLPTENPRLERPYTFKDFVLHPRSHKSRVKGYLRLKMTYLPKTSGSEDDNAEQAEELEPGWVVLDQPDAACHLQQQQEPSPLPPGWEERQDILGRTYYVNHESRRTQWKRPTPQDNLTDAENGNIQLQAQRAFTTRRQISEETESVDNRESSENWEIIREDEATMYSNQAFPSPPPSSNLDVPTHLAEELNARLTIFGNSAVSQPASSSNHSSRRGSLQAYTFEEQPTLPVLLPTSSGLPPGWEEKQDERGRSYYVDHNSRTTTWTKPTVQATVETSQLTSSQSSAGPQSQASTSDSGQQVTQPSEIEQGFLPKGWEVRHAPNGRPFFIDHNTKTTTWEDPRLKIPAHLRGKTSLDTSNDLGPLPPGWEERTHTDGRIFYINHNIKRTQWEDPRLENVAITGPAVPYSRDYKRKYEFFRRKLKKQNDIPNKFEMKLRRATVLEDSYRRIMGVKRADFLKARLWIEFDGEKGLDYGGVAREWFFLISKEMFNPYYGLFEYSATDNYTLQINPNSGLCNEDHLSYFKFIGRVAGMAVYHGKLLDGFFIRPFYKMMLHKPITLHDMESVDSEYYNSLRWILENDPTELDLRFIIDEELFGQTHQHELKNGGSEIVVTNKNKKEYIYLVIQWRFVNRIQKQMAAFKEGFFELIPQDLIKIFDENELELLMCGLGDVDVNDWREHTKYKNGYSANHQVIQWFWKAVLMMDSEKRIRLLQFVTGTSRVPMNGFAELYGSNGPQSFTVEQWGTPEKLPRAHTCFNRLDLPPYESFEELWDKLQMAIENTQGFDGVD

USP7 MATH/ TRAF (human) = test: as above
FITC-STK11_mut = test: fluorescence polarisation; saturation binding: dilution series of the protein domain added to 10 nM FITC-labelled peptide; 50 mM sodium phosphate pH 7.4, 0.05% Tween (protein dialysed in 50 mM sodium phosphate with 1 mM DTT; CASK kinase domain with 100 mM NaCl in addition); quadratic fit; technical triplets

With DKDEWQSLDQNEDAFE [BUB1_(486-501) wild-type peptide] as the binder, how does the Kd (GABARAPL1 ATG8 (human)) read?
Its Kd is 5.5 µM.

Which Kd (GABARAPL1 ATG8 (human)) does the source give for DKDEWQFLDQNEDAFE [BUB1_(486-501) S492F peptide] here?
The Kd was less than 0.3 µM.

How did the KD, major pocket [1] turn out when YLLDGPPNPERAKLSS [CREBBP 5-19 K13E peptide] was run?
Its KD, major pocket is 860 µM.

With PELWVAHRTAQHLSAT [ZNF526_(152-167) K160T peptide] as the binder, how does the KD, minor pocket [2] read?
The KD, minor pocket was 395 µM.

QTKWELLQQVDTSTRT [KRT1 209-224 wild-type peptide] was tested. Which Kd (MAP1LC3A ATG8 (human)) did it give?
Its Kd is 55 µM.

QTKWEPLQQVDTSTRT [KRT1 209-224 L214P peptide] was tested. Which Kd (MAP1LC3A ATG8 (human)) did it give?
Its Kd is 580 µM.

PIPGTPPPNYDSLRLQ [SCNN1B_(611-626) wild-type peptide] was tested. Which Kd [3] did it give?
The Kd was 39 µM.

How did the Kd [3] turn out when PIPGTRPPNYDSLRLQ [SCNN1B_(611-626) P616R peptide] was run?
The Kd was 80 µM.

Which Kd [3] does the source give for PIPGTPPRNYDSLRLQ [SCNN1B_(611-626) P618R peptide] here?
Its Kd is 603 µM.

For YISSSSTSTMPNSSQSS [CHK2 38-53 wild-type peptide], which Kd (USP7 MATH/ TRAF (human)) is on record?
The Kd was 3.1 µM.

For YISSSSTSTMPNSSKSS [CHK2 38-53 Q51K peptide], which Kd (USP7 MATH/ TRAF (human)) is on record?
Its Kd is 4.7 µM.

B1: ADP-ribosylation factor-binding protein GGA1 (GGA1) VHS domain (domain or fragment)
chain: ATNPLNKELDWASINGFCEQLNEDFEGPPLATRLLAHKIQSPQEWEAIQALTVLETCMKSCGKRFHDEVGKFRFLNELIKVVSPKYLGSRTSEKVKNKILELLYSWTVGLPEEVKIAEAYQMLKKQGIVKS
With B1 as the binder, how does the Kd (FITC-STK11_mut) read?
The Kd was 14.1 µM.
